Here are results for two molecules from patent publication US20160264953A1.

Experiment [1] addresses mannose-6-phosphate receptor. The experiment can be described thus: relative binding to mannose-6-phosphate receptor; method not given.
Experiment [2] deals with mannose-6-phosphate receptor. The experiment can be described thus: relative binding to mannose-6-phosphate receptor (Fabrazyme = 100); method not given.

In experiment [1], “Fabrazyme® (from UniProt P06280 32-429) (enzyme)” came in with a Binding to M6Pr (%) of 100%.

B1: recombinant human α-galactosidase-A protein provided herein (FZ2G) (enzyme)
chain: LDNGLARTPTMGWLHWERFMCNLDCQEEPDSCISEKLFMEMAELMVSEGWKDAGYEYLCIDDCWMAPQRDSEGRLQADPQRFPHGIRQLANYVHSKGLKLGIYADVGNKTCAGFPGSFGYYDIDAQTFADWGVDLLKFDGCYCDSLENLADGYKHMSLALNRTGRSIVYSCEWPLYMWPFQKPNYTEIRQYCNHWRNFADIDDSWKSIKSILDWTSFNQERIVDVAGPGGWNDPDMLVIGNFGLSWNQQVTQMALWAIMAAPLFMSNDLRHISPQAKALLQDKDVIAINQDPLGKQGYQLRQGDNFEVWERPLSGLAWAVAMINRQEIGGPRSYTIAVASLGKGVACNPACFITQLLPVKRKLGFYEWTSRLRSHINPTGTVLLQLENTMQMSLKDLL
modifications: N-linked oligosaccharides (including mannose-6-phosphate and bis-mannose-6-phosphate oligosaccharides) at Asn108, Asn161 and Asn184
B1 registered a Binding to M6Pr (%) in experiment [2] of 130%.
